Residue numbers refer to the chain shown, from its start.
B1: EhAGCK2 WT (Entamoeba histolytica HM-1:IMSS) (protein)
chain: MSVKTGWGIKEGGSWKTWKRRMFKLSEGKIEYFKDEGMTKKMGDIELSKVTHVLAVDQYKKRKNLIRIITPSRTYHISVNEESDRDSWVEAIRGMIGDNKEKKTQEEKEENKISMEDFDIITLLGKGAFGKVMLVKYKKEGKIYAMKTVEKAQIIDSNEVEHILSEKVVLSQINNPFLVNMHYSFQTPTHLVFILDYCAGGELFSYLQKHPAGLPEVDVKFYAAQIVLALEHMHSTGIIYRDIKPENILFEKDGYLRMTDFGLAKSTKKGTTNTFCGTPEYLAPEVVEGLDYNEYIDWWGLGILIYEMLFTQSPFLAETMEELYENILQREPKYPSTKPITEECMNFINSLLIKEPSKRLTDPDQIKTHPWFNGFNFDDLYKKKLTPPYVPKIQSQTDTSNFDDEITQEEVDLKTGVEVVADNRFFTDFTYVQK
notes: full-length, His-tagged (pCold), expressed in E. coli C41(DE3)
B2: human GSK3 (HsGSK3) peptide (peptide)
peptide: GRPRTTSFAESCK
notes: also called human GSK3 peptide substrate; source: synthetic peptide
B3: EhAGCK1 WT (Entamoeba histolytica HM-1:IMSS) (protein)
chain: MEEKTQGWLMKEGGSWKSWKKRYFVLDNDTLYYYKEQDKKTLMGTMNLSLATHITAVDNYHKKYENIIRICTPSRTFHLSAANEEERLAWLTSIICHSEKTNICKPRISSVPVTQKDFDVKCLLGKGAYGKVFLVEMISTHEIFAMKTIEKKQIIEYEEIEHTMSERRILSKLHHPFLVNLYYSFQTPTHLFYIIDYCPGGEFYYYLQKNGKVSEEDAKFYAAQILLAIEHLHSSNIVYRDIKPENILIGADGYLRLTDFGLSKENVTKENTTSTFCGTPEYLAPEVVVGKDYSEPVDWWGFGILIYEMIHGHAPFTSEDIQQLFQKIIHDPVSFPSASYPSADCKECIVMLLEKDPEKRLTDPNRIKSHCWFKGFDWEGLFQKKLSPPFVPVLKDKTDTSNFNEDIINETAKIDEGEVVDSKDYFNDFTYCK
notes: as for B1

Experiments:
[1] = substrate: Nc1ncnc2c1ncn2[C@@H]1O[C@H](COP(=O)(O)OP(=O)(O)OP(=O)(O)O)[C@@H](O)[C@H]1O; assay: ADP-Glo luminescent kinase assay with 0-1000 uM ATP, 50 uM EhCoactosin peptide as co-substrate and 20 uM kinase, pH 7.5, 30 °C, Michaelis-Menten fit.; type: biochemical
Description: (§1) Fig 6 Graphs representing the Michaelis-Menten kinetics of EhAGCK1 and EhAGCK2. Panel A-D represents the Km and Vmax for peptide substrates, assays were performed in the presence of 20 μM EhAGCK1 (WT and KDD1) and EhAGCK2 (WT and KDD2) proteins were assayed in the presence of 250 μM ATP and serial dilutions (0 μM to 200 μM) of EhRhoGEF, EhCoactosin, and HsGSK3 peptide substrates. […] Panel E-H represents the Km and Vmax for ATP, assays were assessed in the presence of 50 μM peptide substrates (EhRhoGEF, EhCoactosin, and HsGSK3), serial dilution(0 μM to 1000 μM) of ATP, and 20 μM of the proteins EhAGCK1 (WT, and KDD1) and EhAGCK2 (WT, and KDD2). […] Relative luminescence unit (RLU) values are converted to μM/min using the method described in the Materials and Methods section. […]
(§2) Further, we determined the Km and Vmax values for ATP as it serves a vital metabolic molecule and substrate crucial for kinase activity, determining ATP Km and Vmax a key biochemical parameters for all kinases. […] Additionally, we compared previously determined Km and Vmax values of human Akt proteins in the presence of GSK3 peptide with our kinase protein results, which are presented in Table 1.
(§3) The phosphorylation activity of kinases was measured using the ADP-Glo kinase assay kit according to the manufacturer’s protocol with few modifications (Promega, Madison, WI, Catalogue number V6930). […]

[2] = substrate: Nc1ncnc2c1ncn2[C@@H]1O[C@H](COP(=O)(O)OP(=O)(O)OP(=O)(O)O)[C@@H](O)[C@H]1O; assay: ADP-Glo luminescent kinase assay with 0-1000 uM ATP, 50 uM HsGSK3 peptide (GRPRTTSFAESCK) as co-substrate and 20 uM kinase, pH 7.5, 30 °C, Michaelis-Menten fit.; type: biochemical
Description: as §1, §2, §3

[3] = biological target: T1, KDD2, kinase-dead EhAGCK2 (K147A and D242A) (Entamoeba histolytica, UniProt C4M3C2 1-434, K147A | D242A); assay: MST; His-tagged kinase labelled with RED-tris-NTA 2nd Generation dye, kept constant (50 nM by the legend); unlabelled peptide in 16 1:1 dilutions, 500 uM to 153 nM as printed; 50 mM Tris-Cl pH 8, 150 mM NaCl, 1 mM beta-ME, 5% glycerol; 25 C; Monolith NT.115, 50% LED, medium MST power; details: both partners purified
T1 construct: source: E. coli C41(DE3), purified (Ni2+-NTA)
T1 sequence: B1 chain with K147A, D242A

[4] = biological target: T2, EhAGCK1 WT (Entamoeba histolytica AGC family kinase 1, EHI_188930), full-length recombinant His-tagged protein (Entamoeba histolytica, UniProt C4M2W0 1-433); assay: as above; details: both partners purified
T2 construct: also called His-EhAGCK1; source: E. coli C41(DE3), purified (Ni2+-NTA)
T2 sequence: B3 chain

[5] = biological target: T3, EhAGCK2 WT (Entamoeba histolytica AGC family kinase 2, EHI_053040), full-length recombinant His-tagged protein (Entamoeba histolytica, UniProt C4M3C2 1-434); assay: as above; details: both partners purified
T3 construct: source: E. coli C41(DE3), purified (Ni2+-NTA)
T3 sequence: B1 chain

[6] = biological target: T4, KDD1, kinase-dead EhAGCK1 (K147A and D241A) (Entamoeba histolytica, UniProt C4M2W0 1-433, K147A | D241A); assay: as above; details: both partners purified
T4 construct: source: E. coli C41(DE3), purified (Ni2+-NTA)
T4 sequence: B3 chain with K147A, D241A

[7] = substrate: Nc1ncnc2c1ncn2[C@@H]1O[C@H](COP(=O)(O)OP(=O)(O)OP(=O)(O)O)[C@@H](O)[C@H]1O; assay: ADP-Glo luminescent kinase assay with 0-1000 uM ATP, 50 uM EhRhoGEF peptide as co-substrate and 20 uM kinase, pH 7.5, 30 °C, Michaelis-Menten fit.; type: biochemical
Description: as §1, §2, §3

| Binder | Km [1] | Km [2] | Kd [3] | Kd [4] | Kd [5] | Kd [6] | Km [7] |
| --- | --- | --- | --- | --- | --- | --- | --- |
| B1 | 92.06 µM | 291± 74.4 μM uM |  |  |  |  |  |
| B2 |  |  | 2.38 µM | 2.62 µM | 0.0848 µM | 1080 µM |  |
| B3 |  | 241.7 ±22.2 μM uM |  |  |  |  | 125.4 µM |

From article PMC11642994, “AGC family kinase of Entamoeba histolytica: Decoding the members biochemically” (PLOS Pathogens, 2024)
